Data reported in patent US20250250357A1 (NANJING ZAIMING PHARMACEUTICAL, published 2025).

Target: T1, human MSLN-FL-his protein (human, UniProt Q13421 296-580)
T1 construct: made in HEK293E cells, purified on nickel column; also called hMSLN-FL-his; human MSLN full-length protein; not shown: His tag
Experiment: SPR (Biacore), antibody captured on Protein A chip;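 note: flow cell at 25 °C, antigen injected for 240 s at five concentrations from 200 nM downward, dissociation followed up to 600 s, double-referenced, fitted with Langmuir 1:1 model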

T1 sequence (Q13421 other isoform, or with tags, fused parts or gaps): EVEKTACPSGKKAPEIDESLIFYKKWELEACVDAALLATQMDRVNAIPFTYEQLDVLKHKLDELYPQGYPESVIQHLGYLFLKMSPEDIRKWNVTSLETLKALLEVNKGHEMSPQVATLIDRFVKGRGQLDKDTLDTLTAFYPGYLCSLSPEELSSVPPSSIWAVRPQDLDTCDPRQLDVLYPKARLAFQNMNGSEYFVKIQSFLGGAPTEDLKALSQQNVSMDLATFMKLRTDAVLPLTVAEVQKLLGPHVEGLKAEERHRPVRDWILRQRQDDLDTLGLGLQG

Binder	Kd [nM]	koff [s⁻¹]	kon [M⁻¹ s⁻¹]
S009-F7.6.17 (antibody, human IgG1, kappa, V domains shown, human-murine chimeric antibody, human IgG1/kappa constant regions) VH: QVQLQQSGAELARPGASVKMSCKASGYTFTTYTMHWVKQRPGQGLEWIGYISPTGDFTKYNQKFKDKATLTTDKSSNTAFMQLSSLTSEDSAVYYCARWNGTVWFAYWGQGTLVTVSA VL: DIVMTQSQKFMSTSVGDRVTVTCKASQALGTNVAWYQQKPGQSPKVLIYSASYRYSGVPYRFAGGGSGTDFTLTITNVQSEDLAEYFCQQYNNYPLTFGAGTKLELKR	1.18	0.000389	329000
S009-F7.11.11 (antibody, human IgG1, kappa, V domains shown, human-murine chimeric antibody, human IgG1/kappa constant regions) VH: EVQLQQSGPELVKPGASVKIPCKASGYTITDYNMDWVKQSRGKSLEWIGDVFPYNGDSIYNQKFEGRATLTVDKYSSTAYMELRGLTSEDTAVYFCARRKTGTGYFDVWGTGTTVTVSS VL: QLVLTQSPAIMSASPGEKVTLTCSASSSVSSTYLSWYLQKPGSSPKLWIYSTSNLASGVPARFSGSGSGTSYSLTISSMEAEDAASYFCHQWSSYPYTFGGGTKLEIKR	0.181	0.00024	1.33e+06
S009-F7.12.13 (antibody, human IgG1, kappa, V domains shown, human-murine chimeric antibody, human IgG1/kappa constant regions) VH: EVQLQQSGPELVKPGASVKIPCKASGYTFTDYNMDWVKQSHGKGLEWIGDINPNTDDTIYNQKFNGKATLTVDKSSSTAYMELRSLTSEDTAVYYCSRRLIGTGYFDVWGTGTTVTVSS VL: QIVLTQSPAIMSASPGEKVTLTCSASSSVISTYLCWYRQKPGSSPELWIYSTSNLASGVPARFSGSGSGTSYSLTISSMEAEDAASYFCHQWSNYPYTFGGGTKLGMKR	40.5	0.00892	220000
S009-F7.21.16 (antibody, human IgG1, kappa, V domains shown, human-murine chimeric antibody, human IgG1/kappa constant regions) VH: QVQLQQPGTELVKPGASVKLSCKASGYTFTTFWMHWVKQRPGQGLEWIGGVNPTNGGTNYNEKFRTKATLTVDKSSTTADMQLSSLTSEDSAVYYCAPHYISSRPGFAYWGQGTLVTVSG VL: DIVMTQSQKFMSTSGGDRVSVTCKASQNVGTNVAWYQQKPGQSPKALIYSASYRYSGVPDRFTGSGSGTDFILTISNVQSEDLAEYFCQQYNSYPLTFGGGTKLEIKR	1.69	0.000773	458000
S009-F7.23.19 (antibody, human IgG1, kappa, V domains shown, human-murine chimeric antibody, human IgG1/kappa constant regions) VH: EVKLVESGGGLVQPGGSLSLSCAASGFTFTDYYMSWVRQPPGKALEWLGFIRSKANAYTTEYSASVKGRFTISRDNSQSILYLQMNDLRAEDSATYYCARYYYYGSGYVWYFDVWGTGTTVTVSS VL: DIVMTQSQKFMSTSVGDRVSVTCKASQSVGTNVAWYQQKPGQFPKALIYSASYRYSGVPDRFTGSGSGTDFTLTIINVQSEDLAEYFCQQYNSYPLTFGAGTKLELKR	13.6	0.00695	511000
S009-F7.25.19 (antibody, human IgG1, kappa, V domains shown, human-murine chimeric antibody, human IgG1/kappa constant regions) VH: QVQLQQPGTELVKPGASVKLSCKASGYTFTSYWMHWVKQRPGQGLEWIGNIIPSNGGTKYNEKFKSKATLTVDKSSSTAYMQLSSLTSEDSAVYYCSPHYYGGSPGFAYWGQGTLITVSA VL: DIVMTQSQKFMSTSVGDRVSVICKASQNVGTNVAWYQQKPGQSPKALIYSASYRYSGVPDRFTGSGSGTDFTLTISNVQSEDLAEYFCQQYNSYPLTFGGGTKLEIKR	2.71	0.00113	417000
S009-F7.26.15 (antibody, human IgG1, kappa, V domains shown, human-murine chimeric antibody, human IgG1/kappa constant regions) VH: DVQLQESGPGLVKPSQTVFLTCTVTGISITTGNYRWSWIRQFPGNKLEWIGYIYYTGFITYNPSLTSRTTITRDTPKNQFFLEMKSLTAEDTATYYCARDDYDYDVFAYWGQGTLVTVSA VL: DIQMTQSPASLSASVGETVTITCRASGNIHNYLAWYHQKQGKSPQFLVYKAKTLADGVPSRFSGSGSGTQYSLKINRLQPEDFGSYYCQHFLSIPLTFGAGTKLELKR	0.2	0.000975	4.88e+06
S009-F7.30.5 (antibody, human IgG1, kappa, V domains shown, human-murine chimeric antibody, human IgG1/kappa constant regions) VH: QVQLQQPKTELVKPGASVKLSCKASGYIFTTYWMHWVKQRPGQGLEWIGNVNPSNGGTMYNEKFERRATLTVDKSSSTADMQLSSLTSEDSAVYYCVPHYIGSRPGFAYWGQGTLVTVSG VL: DIVMTQSQKFMSTSVGDRVSVTCKASQNVGTNVAWYQHKPGQSPKALLYSASYRYSGVPDRFTGSGSGTDFTLTITNVQSEDLAEYFCQQYNSYPLTFGGGTKLEIKR	3.83	0.000705	184000
